Consider five molecules from US20160280780A1 (CORMORANT PHARMACEUTICALS, published 2016).

Positions count from the first letter of the chain named.

In test [1] the target is recombinant human IL-8 (form not stated for this assay) (human) (UniProt P10145). In words: competition: varying murine anti-IL-8 antibody against 0.25 nM [125I]-rhIL-8 binding to IL-8 receptors (CXCR1, CXCR2) on human neutrophils, filter plate, gamma counting; x axis printed 'IL-8 (nM)'.
The target of test [2] is T1, rh-IL-8 72 aa form, monocyte derived (human, UniProt P10145 28-99).
T1 construct: mature; also called IL-8M; IL-8Mpepretech
T1 sequence (looked up): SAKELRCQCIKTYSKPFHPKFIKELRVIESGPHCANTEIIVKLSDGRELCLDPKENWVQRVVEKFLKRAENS
In words: cell-based or functional assay.

For test [3], the target named is T2, recombinant human (rh) GRO-α (human, UniProt P09341 35-107).
T2 sequence (looked up): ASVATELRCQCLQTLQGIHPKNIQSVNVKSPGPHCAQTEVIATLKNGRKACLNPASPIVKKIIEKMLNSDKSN
In words: ELISA, plate coated with 1 µg/mL rh-GRO-α, HuMab 10F8 titrated 1:3 from 20 µg/mL, HRP anti-human IgG, A405. The protocol: (§1) Possible cross-reactivity of HuMab 10F8 clone towards other chemokines was evaluated by ELISA. Briefly, microtiter ELISA plates (Greiner, Germany) were coated overnight at room temperature (RT) with 1 μg/mL of recombinant human (rh) GRO-α, rh-GRO-β, rh-IP-10, rh-IL-8 72 aa form, which is monocyte derived (IL-8M or IL-8Mpepretech) or rh-IL-8 77 aa form (IL-8E), which is endothelial cell derived, 100 μl per well. Plates were washed twice with PBST (phosphate buffered saline supplemented with 0.05% v/v Tween-20 (Fischer Scientific, USA)) and wells were blocked with 100 […] PBSTC (PBST plus 2% v/v chicken serum) for 1 hour, RT. Thereafter, wells were incubated for 1 hour, RT under shaking conditions with HuMab-IL-8 clone 10F8, 20 μg/mL 1:3 diluted in PBSTC. Subsequently, wells were washed thrice with PBST and incubated with either HRP-conjugated rabbit anti-mouse IgG F(ab′)₂ fragments (Jackson; diluted 1:3000 in PBSTC) or HRP-conjugated rabbit anti-human IgG F(ab′)₂ (DAKO, Denmark; diluted 1:2000 in PBSTC) for the detection of mouse or human antibodies, respectively.
In general terms: An ELISA detects its analyte on a solid surface through an enzyme-linked reagent.

Test [4] concerns the target T1, rh-IL-8 72 aa form, monocyte derived. In words: ELISA, plate coated with 1 µg/mL rh-IL-8 72 aa form (curve IL-8Mpeprotec), HuMab 10F8 titrated 1:3 from 20 µg/mL, HRP anti-human IgG, A405. The protocol:
as §1

In another test the target is T3, rh-IP-10 (human, UniProt P02778 22-98).
T3 sequence (looked up): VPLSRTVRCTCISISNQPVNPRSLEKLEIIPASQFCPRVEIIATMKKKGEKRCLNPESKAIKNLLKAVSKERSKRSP
The experiment in a line: ELISA, plate coated with 1 µg/mL rh-IP-10, HuMab 10F8 titrated 1:3 from 20 µg/mL, HRP anti-human IgG, A405. The protocol:
as §1

Test [5] deals with T4, recombinant human IL-8 (form not stated for this assay) (human, UniProt P10145 28-99, limits assumed).
T4 construct: also called rhIL-8
T4 sequence (looked up): T1 sequence (looked up)
The experiment in a line: SPR, BIAcore 3000, IL-8 amine-coupled on CM-5 chip, 25° C. The protocol: (§2) Affinity constants for 10F8 Fab were determined and compared with corresponding values of 10F8 IgG1,κ. Whole IgG molecules lead to rebinding effects during the dissociation phase of experimental procedures to determine the affinity constants, thus leading to an apparently lower dissociation rate constant and in turn, much higher affinity constant. To eliminate these artifactual avidity effects, Fab molecules were used in the place of IgG1,κ to determine the affinity and rate constants. A CM-5 chip was used to immobilize IL-8 via amine coupling.

Test [6] concerns the target T4, recombinant human IL-8 (form not stated …). In words: SPR, BIAcore 3000, IL-8 amine-coupled on CM-5 chip, 37° C. As to the method:
as §2
For orientation: SPR reads the build-up and loss of mass on a sensor chip optically.

Test [7] shares this target. In words: competition: varying 10F8 against 0.25 nM [125I]-rhIL-8 binding to IL-8 receptors (CXCR1, CXCR2) on human neutrophils, filter plate, gamma counting; x axis printed 'IL-8 (nM)'. As to the method:
The ability of HuMab 10F8 to inhibit radiolabeled IL-8 binding to IL-8 receptors (CXCR1 and CXCR2) on neutrophils was assessed as follows:
(§3) Neutrophils were enriched from heparinized whole blood from normal volunteers. The blood was layered on Ficoll-hypaque and centrifuged at 1500 rpm for 30 minutes. The mononuclear cell layer was removed, and erythrocytes were hypotonically lysed. The resulting neutrophils were resuspended in PBS containing 0.1% BSA and 0.02% Na azide (0.1% PBA) and held on ice. The IL-8 binding assay was performed as previously described (Yang et al, (1999) J. Leukoc. Biol. 66:401-410). Briefly, in a final volume of 150 μl, 4×10⁵ neutrophils were incubated from 1.5-3 hours on ice with 0.25 nM [¹²⁵I] recombinant human IL-8 (Amersham Life Sciences, Piscataway, N.J.) along with varying concentrations of 10F8 (hybridoma-derived), 10F8 (transfectoma-derived), mouse anti-human IL-8 mAb 6712.111 R & D Systems, and control antibody. All incubations were performed in 96 well Multiscreen filter plates (Millipore, Bedford, Mass.). Plates were washed extensively with cold 0.1% PBA, and filters were counted on a Wallac gamma counter. Results are shown in FIGS. 7A and 7B, expressed as means of triplicate or quadruplicates. The inhibition of binding is expressed as percentage of control antibody.

A further test addresses T5, rh-GRO-β (human, UniProt P19875 35-107).
T5 sequence (looked up): T2 sequence (looked up) with S2P, V3L, P20L, N27K, R48Q, I58M, N68K, S69N, D70G
The experiment in a line: ELISA, plate coated with 1 µg/mL rh-GRO-β, HuMab 10F8 titrated 1:3 from 20 µg/mL, HRP anti-human IgG, A405. The protocol: as §1

The target in test [8] is T4, recombinant human IL-8 (form not stated …). The experiment in a line: inhibition of 0.25 nM [125I]-IL-8 binding to human neutrophils (CXCR1 and CXCR2), filter plate assay. The protocol: as §3
In the experiment shown in FIG. 7B, the IC₅₀s of 10F8 (hybridoma-derived) (10F8 H) and 10F8 (transfectoma-derived) (10F8 T) were 0.19 nM and 0.30 nM, respectively.

Test [9] shares this target. In words: SPR, BIAcore 3000, IL-8 amine-coupled on CM-5 chip, 25° C.; half-life of the complex. The protocol:
as §2

Test [10] has as its target T1, rh-IL-8 72 aa form, monocyte derived. The experiment in a line: ELISA, plate coated with 1 µg/mL rh-IL-8 72 aa form (curve IL-8M), HuMab 10F8 titrated 1:3 from 20 µg/mL, HRP anti-human IgG, A405. As to the method:
as §1

Test [11] has as its target T4, recombinant human IL-8 (form not stated …). The experiment in a line: SPR, BIAcore 3000, IL-8 amine-coupled on CM-5 chip, 37° C.; half-life of the complex. The protocol: as §2

As for “mouse anti-human IL-8 mAb 6712.111 (R & D Systems) (antibody)”, in test [1], the IC50 (read off the curve) was determined as 0.5 nM.

In test [2], “irrelevant human isotype control antibody (Example 8)” displayed an expression level of CD11b on IL-8 stimulated PMN (MFI) of 2400 MFI and an expression of CD62L on IL-8 stimulated PMN (MFI) of 150 MFI.

B1: HuMab 10F8 (hybridoma-derived), human monoclonal IgG1,κ antibody (antibody, V domains shown)
VH: QVQLVESGGGVVQPGRSLRLSCTASGFTFSHYGMYWVRQAPGKGLEWVAVIWYDGSYEYNEDSVKGRFTISRDNSKNTLYLQMNSLRAEDTAVYYCARDRVGLFDYWGQGTLVTVSS
VL: EIVLTQSPGTLSLSPGERATLSCRASQSISSSYLAWYQQKPGQAPRLLIYGPSSRATGIPDRFSGSGSGTDFTLTISRLEPEDFAVYYCQQYAGSLTFGPGTKVDIK
notes: Purified from hybridoma culture supernatant by Protein A; also called HuMab-IL-8 clone 10F8; HuMab-IL-8 (10F8)
Consider B1, for which the binding result (in [3]; with rh-IP-10; with rh-GRO-β) was “no binding (tested: 20 µg/ml)” in each case. The figures for the concentration giving a half-maximal response (EC50 (read off the curve)) in test [4] and in test [10] were roughly 0.2 µg/mL and roughly 0.4 µg/mL, respectively. The results for the Kd in test [5] and in test [6] were 0.01 nM and 0.02 nM, respectively. Also, the koff in [5] was found to be 2.1e-06 s⁻¹; in test [6], 5.4e-06 s⁻¹. Moreover, the kon in test [5] was found to be 231000 M⁻¹ s⁻¹; in test [6], 275000 M⁻¹ s⁻¹. The “IC50 (read off the curve)” value in test [7] was roughly 0.2 nM. In [8], the IC50 was 0.19 nM. The “Half-life (1n (2/k_off hrs))” value in [9] worked out at 90.4 h; in test [11], 38.2 h.

B2: HuMab 10F8 (transfectoma-derived), recombinant 10F8 produced from CHO cells (antibody, V domains shown)
VH: B1 VH
VL: B1 VL
For the molecule B2, the IC50 in [8] was 0.3 nM.

B3: 10F8 Fab (Fab fragment prepared from HuMab 10F8 IgG) (Fab, V domains shown)
VH: B1 VH
VL: B1 VL
As to B3, in test [5], the Kd amounted to 0.194 nM, the koff turned out to be 1.96e-05 s⁻¹ and the kon is 101000 M⁻¹ s⁻¹. In [6], the Kd was 0.372 nM, the koff came to 3.94e-05 s⁻¹ and the kon was found to be 106000 M⁻¹ s⁻¹. The “Half-life (1n (2/k_off hrs))” value in [9] is 8.3 h. For the same molecule, the “Half-life (1n (2/k_off hrs))” value in [11] was determined as 4.9 h.

The term EC50 (read off the curve) denotes the concentration at which the effect is half-maximal. A low value points to a more potent agent. In general, Kd refers to the constant that tells how readily two partners part at equilibrium. Broadly, the koff is a measure of how fast the partners let go of each other. By kon is commonly meant the rate constant with which the complex forms. One may read the IC50 as the concentration that inhibits the measured activity by half.
